Laboratory results reported in patent US20140255408A1 (Janssen / Centocor, published 2014).
Where two headings read alike, the source gives them in different places.

Tests used:
human EGFR on cells [1] = target: T1, human EGFR on cells (human, UniProt P00533 25-1210); experiment: cell-based or functional assay
[2] = target: T2, Recombinant human c-Met Fc chimera (human, UniProt P08581 16-932); experiment: HGF competition assay on coated c-Met-Fc, competitor biotinylated HGF
T2 construct: not shown: Fc part

[3] = target: T2, Recombinant human c-Met Fc chimera; experiment: SPR (ProteOn), c-Met-Fc captured on anti-human Fc IgG, FN3 domain as analyte
human c-Met on cells [4] = target: T3, human c-Met on cells (human, UniProt P08581 25-1390); experiment: cell-based or functional assay
human c-Met on cells [5] = target: T3, human c-Met on cells; experiment: H441 cell binding assay, anti-His detection
Description: Purified FN3 domains (50 μL/well; 0 to 1000 nM) were added to the cells for 1 hour at 4° C. in duplicate plates. […] Cells were incubated with biotinylated-anti HIS antibody (diluted 1:160 in FACS stain buffer, 50 μL/well, R&D Systems, cat #BAM050) for 30 minutes at 4° C. […] Cells were washed three times with FACS stain buffer (150 μL/well) and left in FACS stain buffer (50 μL/well).

[6] = target: T2, Recombinant human c-Met Fc chimera; experiment: SPR (ProteOn), protocol of Example 3, recombinant c-Met extracellular domain
[7] = target: T4, recombinant human extracellular domain of EGFR fused to an IgG1 Fc (human, UniProt P00533 25-645); experiment: SPR (ProteOn), protocol of Example 3, recombinant EGFR extracellular domain
T4 construct: Bought from R&D Systems; The residues are stated for the panning reagent; also called EGFR-Fc; EGF R-Fc; not shown: IgG1 Fc
Description: All 6 analyte channels were used for the FN3 domains to maximize screening throughput. The dissociation phase was monitored for 10 minutes at a flow rate of 100 μL/min. The inter-spot binding signals were used as references to monitor non-specific binding between analytes and the immobilized IgG surface, and were subtracted from all binding responses. The processed binding data were locally fit to a 1:1 simple Langmuir binding model to extract the koff for each FN3 domain binding to captured EGFR-Fc.
Binding affinity of selected EGFR-binding FN3 domains to recombinant EGFR extracellular domain was further characterized by surface Plasmon resonance methods using a Proteon Instrument (BioRad). The assay set-up (chip preparation, EGFR-Fc capture) was similar to that described above for off-rate analysis. Selected EGFR binding FN3 domains were tested at 1 μM concentration in 3-fold dilution series in the horizontal orientation. A buffer sample was also injected to monitor the baseline stability. […] Two sets of reference data were subtracted from the response data: 1) the inter-spot signals to correct for the non-specific interactions between the EGFR-binding FN3 domain and the immobilized IgG surface; 2) the buffer channel signals to correct for baseline drifting due to the dissociation of captured EGFR-Fc surface over time. The processed binding data at all concentrations for each FN3 domain were globally fit to a 1:1 simple Langmuir binding model to extract estimates of the kinetic (kₘ, koff) and affinity (KD) constants.

human c-Met on cells [8] = target: T3, human c-Met on cells; experiment: cell-based or functional assay; remark: listed apart in the source
human EGFR on cells [9] = target: T1, human EGFR on cells; experiment: cell-based or functional assay; remark: listed apart in the source

Binder | Phospho-EGFR IC50 (A431 cells) (human EGFR on cells [1]) [nM] | IC50 [2] [nM] | Kd [3] [nM] | pMet inhibition in H441 cells (IC50) (human c-Met on cells [4]) [nM] | Inhibition of Proliferation of U87-MG cells (IC50) (human c-Met on cells [4]) [nM] | EC50 (human c-Met on cells [5]) [nM] | Kd [6] [nM] | Kd [7] [nM] | pMet inhibition in H441 cells (IC50) (human c-Met on cells [8]) [nM] | H292 pEGFR inhibition in H292 cells (IC50) (human EGFR on cells [9]) [nM]
P54AR4-47 (designed binder) LPAPKNLVVSEVTEDSLRLSWWDPFSFYDSFLIQYQESEKVGEAINLTVPGSERSYDLTGLKPGTEYTVSIYGVHNVYKDTNMRGLPLSAEFTT | 295 | – | – | – | – | – | – | – | – | –
P114AR7P95-D3 (designed binder, not shown: small tags and cut ends) LPAPKNLVVSRVTEDSARLSWTAPDAAFDSFWIRYFEFLGSGEAIVLTVPGSERSYDLTGLKPGTEYVVNIMGVKGGSISYPLSAIFTT | – | 0.2 | 0.3 | 4.6 | – | – | – | – | – | –
P114AR5P75-E9 (designed binder, not shown: small tags and cut ends) LPAPKNLVVSRVTEDSARLSWTAPDAAFDSFFIRYDEFLRSGEAIVLTVPGSERSYDLTGLKPGTEYWVTILGVKGGLVSTPLSAIFTT | – | 51.9 | 45.8 | 1420 | 1190 | – | – | – | – | –
P114AR7P92-F3 (designed binder, not shown: small tags and cut ends) LPAPKNLVVSRVTEDSARLSWTAPDAAFDSFWIRYFEFLGSGEAIVLTVPGSERSYDLTGLKPGTEYIVNIMGVKGGSISHPLSAIFTT | – | 0.2 | 0.4 | 8.3 | 2.7 | – | – | – | – | –
P114AR7P92-F6 (designed binder, not shown: small tags and cut ends) LPAPKNLVVSRVTEDSARLSWTAPDAAFDSFWIRYFEFLGSGEAIVLTVPGSERSYDLTGLKPGTEYVVNILGVKGGGLSVPLSAIFTT | – | 2.2 | 3.1 | 165 | 350 | 4.9 | – | – | – | –
P114AR7P92-G8 (designed binder, not shown: small tags and cut ends) LPAPKNLVVSRVTEDSARLSWTAPDAAFDSFVIRYFEFLGSGEAIVLTVPGSERSYDLTGLKPGTEYVVQILGVKGGYISIPLSAIFTT | – | 1.6 | 1 | 155 | 124 | 5.9 | – | – | – | –
P114AR7P92-H5 (designed binder, not shown: small tags and cut ends) LPAPKNLVVSRVTEDSARLSWTAPDAAFDSFWIRYLEFLLGGEAIVLTVPGSERSYDLTGLKPGTEYVVQIMGVKGGTVSPPLSAIFTT | – | – | 11.6 | 766 | 672 | 22 | – | – | – | –
P114AR7P93-D11 (designed binder, not shown: small tags and cut ends) LPAPKNLVVSRVTEDSARLSWTAPDAAFDSFWIRYFEFLGSGEAIVLTVPGSERSYDLTGLKPGTEYVVGINGVKGGYISYPLSAIFTT | – | – | – | 16 | 14.4 | 2.3 | – | – | – | –
P114AR7P93-G8 (designed binder, not shown: small tags and cut ends) LPAPKNLVVSRVTEDSARLSWTAPDAAFDSFWIRYFEFLGSGEAIVLTVPGSERSYDLTDLKPGTEYGVTINGVKGGRVSTPLSAIFTT | – | 1 | 6.9 | 460 | 104 | 3.8 | – | – | – | –
P114AR7P93-H9 (designed binder, not shown: small tags and cut ends) LPAPKNLVVSRVTEDSARLSWTAPDAAFDSFWIRYFEFLGSGEAIVLTVPGSERSYDLTGLKPGTEYVVQIIGVKGGHISLPLSAIFTT | – | 2.9 | 3.3 | 288 | 270 | 12.9 | – | – | – | –
P114AR7P94-A3 (designed binder, not shown: small tags and cut ends) LPAPKNLVVSRVTEDSARLSWTAPDAAFDSFWIRYFEFLGSGEAIVLTVPGSERSYDLTGLKPGTEYVVNIMGVKGGKISPPLSAIFTT | – | 0.2 | 0.4 | 5 | 9.3 | 1.4 | – | – | – | –
P114AR7P94-E5 (designed binder, not shown: small tags and cut ends) LPAPKNLVVSRVTEDSARLSWTAPDAAFDSFWIRYFEFLGSGEAIVLTVPGSERSYDLTGLKPGTEYAVNIMGVKGGRVSVPLSAIFTT | – | 0.7 | 4.2 | 124 | 196 | 3.4 | – | – | – | –
P114AR7P95-B9 (designed binder, not shown: small tags and cut ends) LPAPKNLVVSRVTEDSARLSWTAPDAAFDSFWIRYFEFLGSGEAIVLTVPGSERSYDLTGLKPGTEYVVQILGVKGGSISVPLSAIFTT | – | 0.3 | – | 9.8 | 17.4 | – | – | – | – | –
P114AR7P95-D4 (designed binder, not shown: small tags and cut ends) LPAPKNLVVSRVTEDSARLSWTAPDAAFDSFWIRYFEFLGSGEAIVLTVPGSERSYDLTGLKPGTEYVVQILGVKGGYISIPLSAIFTT | – | – | 0.4 | 19.5 | 19.4 | 1.4 | – | – | – | –
P114AR7P95-E3 (designed binder, not shown: small tags and cut ends) LPAPKNLVVSRVTEDSARLSWTAPDAAFDSFWIRYFEFLGSGEAIVLTVPGSERSYDLTGLKPGTEYVVQIMGVKGGTVSPPLSAIFTT | – | – | – | 205 | 209 | 3.2 | – | – | – | –
P114AR7P95-F10 (designed binder, not shown: small tags and cut ends) LPAPKNLVVSRVTEDSARLSWTAPDAAFDSFWIRYFEFTTAGEAIVLTVPGSERSYDLTGLKPGTEYVVNIMGVKGGSISPPLSAIFTT | – | 1.4 | 4.2 | 188 | 130 | 4.4 | – | – | – | –
P114AR7P95-G7 (designed binder, not shown: small tags and cut ends) LPAPKNLVVSRVTEDSARLSWTAPDAAFDSFWIRYFELLSTGEAIVLTVPGSERSYDLTGLKPGTEYVVNIMGVKGGSISPPLSAIFTT | – | – | 20 | 659 | 692 | 11.3 | – | – | – | –
P114AR7P95-H8 (designed binder, not shown: small tags and cut ends) LPAPKNLVVSRVTEDSARLSWTAPDAAFDSFWIRYFEFVSKGEAIVLTVPGSERSYDLTGLKPGTEYVVNIMGVKGGSISPPLSAIFTT | – | – | 3.7 | 210 | 281 | 4.1 | – | – | – | –
ECB95 (designed binder, not shown: C-terminal poly-histidine tag) MLPAPKNLVVSEVTEDSARLSWDDPWAFYESFLIQYQESEKVGEAIVLTVPGSERSYDLTGLKPGTEYTVSIYGVHNVYKDTNIRGLPLSAIFTTAPAPAPAPAPLPAPKNLVVSRVTEDSARLSWTAPDAAFDSFWIRYFEFVGSGEAIVLTVPGSERSYDLTGLKPGTEYVVNILGVKGGSISPPLSAIFTT | – | – | – | – | – | – | 6.2 | 1.1 | 179 | 13.6
ECB15 (designed binder, not shown: C-terminal poly-histidine tag) MLPAPKNLVVSEVTEDSARLSWDDPWAFYESFLIQYQESEKVGEAIVLTVPGSERSYDLTGLKPGTEYTVSIYGVHNVYKDTNMRGLPLSAIFTTAPAPAPAPAPLPAPKNLVVSRVTEDSARLSWTAPDAAFDSFWIRYFEFLGSGEAIVLTVPGSERSYDLTGLKPGTEYVVNIMGVKGGKISPPLSAIFTT | – | – | – | – | – | – | 2.6 | 0.2 | – | 4.2
ECB94 (designed binder, not shown: C-terminal poly-histidine tag) MLPAPKNLVVSEVTEDSARLSWDDPWAFYESFLIQYQESEKVGEAIVLTVPGSERSYDLTGLKPGTEYTVSIYGVHNVYKDTNIRGLPLSAIFTTAPAPAPAPAPLPAPKNLVVSRVTEDSARLSWTAPDAAFDSFWIRYFEFLGSGEAIVLTVPGSERSYDLTGLKPGTEYVVNILGVKGGKISPPLSAIFTT | – | – | – | – | – | – | 4.3 | 1 | 53.8 | 5.1
